Measurements from the Human Domainome abundance scans (Beltran et al. 2025).

B1: Zinc finger homeobox protein 3, residues 2643 to 2698; numbered along this chain, Q15911 (parent)
chain: RLRTTITPEQLEILYQKYLLDSNPTRKMLDHIAHEVGLKKRVVQVWFQNTRARERK

Variants of: B1
Assay: abundance fitness (aPCA) (normalised: wild type 0, dead -1); higher = more abundant; growth selection in yeast, the domain comes from the species named
Conditions: Homo sapiens

Abundance fitness: each site, then its substitutions
R51: E -0.163, D -0.474, P -0.812, H 0.164, I -0.286, Y 0.073, C -0.044
E54: A -0.478, C -0.306, Q -0.495, G -0.305, L -0.2, D 0.014, S -0.497, M -0.177, P -0.38
K40: T 0.355, L 0.283, M 0.192, C -0.195, I 0.093
R55: P 0.105, V 0.282
L29: R -0.544, M 0.028, K -0.695, E -0.159, V -0.043, T -0.273
D21: Y -0.675, V -0.407, C -0.426, G -0.321, W -0.741, M -0.22
L19: H -0.14, K -0.022, A -0.075, P -0.535, E -0.254
K56: P -0.225, W -0.314, L -0.527, H -0.17, Y -0.54
L20: M 0.093, Y -0.466, Q 0.109, V 0.002, K -0.147, P -1.08
P24: V -0.785, Q -0.354, N -0.623, T -0.957, S -0.764, Y -0.548
N49: H -0.412, C -0.496, P -0.778, L -0.334, S -0.029
Q10: L -0.646, E -0.516, N -0.385, W -0.856, A -0.212, I -0.27, M -0.411
T4: L -0.335, I 0.048, Y -0.254, S -0.144, W -0.423, R -0.576, K -0.318
E35: C -0.351, A -0.127, V -0.255, Q -0.016, G -0.487, I -0.029, F -0.557
L11: Q -0.133, D 0.17, S 0.022, M -0.032, C -0.648, P -0.494
V42: D 0.226, Y -0.021, I -0.073, W -0.048, Q -0.372
T25: P -0.145, H -0.448, D 0.189, K -0.506, R -0.753, Y -0.908
I13: L -0.084, E -0.339, K -0.096, T -0.01, F 0.119, C -0.058, S -0.184, M -0.253, P -0.951
T7: P 0.101, N -0.338, A 0.08, C -0.244
A33: G -0.398, E -0.759
Y18: P -0.847, W -0.401, R -0.865, L -0.552, T -1.03, D -0.96, F 0.251
I6: G -0.543, T -0.211
V43: Y -0.807, F -0.815, H -0.973, C -0.345, N -0.64, M -0.889, W -1.07, T -0.548, E -1.11, G -0.937, I -0.127, L -0.485
S22: M -0.247, Y -0.624, A -0.003, K -0.178, V -0.395
R41: W 0.055, D 0.773, Q 0.287, M -0.078, H 0.031, Y -0.129, V 0.041, L -0.001, K 0.297
V36: A -0.114, T 0.053, M -0.427, P -1, Y -0.896, R -0.82
Q16: L 0.572, I -0.073, D -0.246, M 0.225, P -1.08, K -0.106, N -0.226, T -0.021
R3: C 0.216, K 0.209, D 0.543, G 0.228, T 0.435
L14: A -0.908, G -0.956, W -0.758, V -0.926, T -1.04, I -0.951, D -0.568
T50: N -0.572, P -0.6, K -0.091, Y -0.048, G -0.549, A 0.056, W -0.156, D -0.731
W46: Q -0.829, Y -0.261, G -0.792, N -0.902, S -0.867, M -0.956, I -1.03, T -0.865, H -0.897
V45: K -0.399, N -0.489, F -0.028, G -0.213
Y15: T -0.007, L 0.016, V -0.123, R 0.032, A -0.202, I 0.183, G 0.126, S 0.138
E9: C -0.712, N -0.218, V -0.246, Y -0.286, R -0.277, Q -0.038
N23: F 0.149, Q 0.066, D -0.336, H -0.354, S -0.113, L -0.389, C -0.594, G -0.276, Y -0.1, T -0.379
K27: V -0.007, I -0.028, M -0.177, E 0.243, G 0.077
G37: R -0.27, V -0.812, M -0.53, D -0.384, Y -0.919
R1: S 0.131, A 0.267, L 0.561, K 0.027, C 0.239, T 0.504
H31: D 0.348, M 0.073
K17: A -0.08, N 0.228, T -0.59, D -0.651, M 0.114, R 0.099, E 0.007, I -0.628, V -0.52, P -1.05
F47: S -0.946, H -1.09, C -0.945, A -0.904
T5: N -0.233, C -0.107, Y -0.319, P 0.176
L2: Q 0.102, M -0.221, F 0.082, S 0.331, E 0.17
I32: W -0.129, S -0.735, R -1.01, L -0.123, M -0.466
K39: A 0.236, N -0.153, Y -0.114, Q 0.108, R -0.012, E 0.518, G 0.178, D 0.189
Q44: E 0.283, W -0.669, Y -0.114, P -0.723, V -0.179, D 0.481, S -0.044, A 0
D30: W -0.442, C -0.486, L -0.435, M -0.314
E12: V -0.396, T 0.041, K -0.625, H -0.069, S -0.114, Y -0.454, N -0.074, C -0.111
R53: K -0.045, F 0.239, A 0.092, Y -0.327, G 0.126, T 0.029, D 0.31
A52: F -0.428, Y -0.221, G -0.037, P -0.598, Q 0.21, K 0.035, T -0.419, N 0.062, V -0.349
P8: K -0.352, V 0.544, F 0.584, M 0.57, D -0.084, R 0.196, C 0.475
R26: E 0.419, A 0.434, S 0.428, D 0.458, W 0.401
Q48: E 0.404, F -0.802, G -0.164, T 0.028
L38: T -0.616, I -0.786, H -0.737, R -0.846
H34: A -0.123, W -0.095, C -0.075
